Publication PMC8307404, “Crystal Structure-Guided Design of Bisubstrate Inhibitors and Photoluminescent Probes for Protein Kinases of the PIM Family” (Molecules, 2021)
Square brackets hold non-standard residues; d marks the D form. Peptide text beside a SMILES is read from it. * marks the point of attachment. X3 = O=C(CCCCCNCc1nc2c(sc3cc(Br)cnc32)c(=O)[nH]1)*

Experiments:
NEK2 = target: T1, NEK2 (Homo sapiens, UniProt P51955); test: Kinase profiling (radiometric filter-binding); format: biochemical; details: NEK2 (letter lost), 1 µM inhibitor; read-out: Residual activity, %
T1 sequence (P51955 1-445): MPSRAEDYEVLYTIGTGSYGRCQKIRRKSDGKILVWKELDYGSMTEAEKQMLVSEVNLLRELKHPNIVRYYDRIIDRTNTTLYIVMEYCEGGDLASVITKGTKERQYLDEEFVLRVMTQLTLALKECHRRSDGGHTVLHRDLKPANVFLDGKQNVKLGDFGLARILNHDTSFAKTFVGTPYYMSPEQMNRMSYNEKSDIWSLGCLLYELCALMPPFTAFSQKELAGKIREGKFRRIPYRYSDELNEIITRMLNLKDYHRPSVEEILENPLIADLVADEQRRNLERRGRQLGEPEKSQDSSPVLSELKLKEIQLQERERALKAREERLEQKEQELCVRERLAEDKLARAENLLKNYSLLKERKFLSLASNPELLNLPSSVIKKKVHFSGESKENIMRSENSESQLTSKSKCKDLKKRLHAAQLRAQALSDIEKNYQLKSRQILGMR
How it was run: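 A 1 µM final dose of each inhibitor was profiled on human protein kinases; ATP was kept at or beneath the KM of every enzyme, and radiometric filter binding measured turnover, expressed as % of the inhibitor-free reaction.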

panel of 140 PKs = test: Kinase selectivity profiling, panel metrics; format: biochemical, human; details: 1 µM compound; kinases other than PIM family
Description: (§1) Kinase selectivity profiling was performed using the commercial service provided by the MRC PPU International Centre for Kinase Profiling (Dundee, UK) using a radiometric filter-binding assay. Kinases used for analysis were of human origin. The ATP concentration applied for inhibition measurements was at or below the ATP KM value of the particular PK. ARC-3125 and ARC-3126 were screened against 139 PKs, whereas compounds 1, 2, and 8 were screened against 140 PKs. The final total concentration of inhibitors in the selectivity panel was 1 µM. Residual activities were expressed as the percentage of retained activity compared to the control without inhibitor.
From the residual activities, values of the Gini coefficient and hit rate were calculated for each individual compound. The Gini coefficient is a single-value metric whose value for a specific inhibitor depends on the number and origin of the PKs in the panel, but also on concentration of the tested compound [70]. Hit rate is the number of kinases inhibited by over 50%.

PIM family = test: Kinase profiling (radiometric filter-binding), PIM family; format: biochemical, human; details: 1 µM compound
Description: as §1

U2OS cells = test: Cellular uptake of fluorescent probes, live-cell microscopy; format: cell-based, human; details: 1–5 μM, 10–60 min
Description: For studies of the general internalization properties of ARCs, the cells were seeded at the density of 12,000–25,000 cells per well onto an Ibidi μ-plate (96-well; Ibidi GmbH, Planegg, Germany). After 24 h incubation in growth medium, the cells were treated for 10 min, 30 min, or 1 h with dilutions of compounds 6, 7, 8, or ARC-2090 (5 μM, 2.5 μM, or 1 μM final concentration) in the phenol red-free DMEM/Ham’s F12 medium supplemented with 2% ccFBS and 2 mM glutamine. Next, cells were washed twice with PBS, and imaging medium (MEMO + Supplement A 1:100) was applied subsequently. Cells were imaged with Cytation 5 wide-field microscope (BioTek; Winooski, VT, USA) using 20× air objective and the following settings: for Cy5, 623 nm LED (intensity: 2) and Cy5 filter cube (685 nm) with 104 ms integration time and detector gain value of 2; for TAMRA, 523 nm LED (intensity: 7) and RFP filter cube (593 nm) with 252 ms integration time and detector gain value of 16; for bright-field, white LED with intensity 6, 186 ms integration time and detector gain value of 15. Four independent experiments were performed.

SMILES | remaining activity at 1 µM (NEK2) [%] | further results
N=C(N)NCCC[C@@H](NC(=O)CCCCCNC(=O)Cn1cnc2c(I)c(I)c(I)c(I)c21)C(=O)N[C@H](CCCNC(=N)N)C(=O)N[C@H](CCCNC(=N)N)C(=O)N[C@H](CCCNC(=N)N)C(=O)N[C@H](CCCNC(=N)N)C(=O)N[C@H](CCCNC(=N)N)C(=O)N[C@H](CCCCN)C(N)=O [ARC-3125, TIBI-CH2-C(=O)-Ahx-(D-Arg)6-D-Lys-NH2] | 21 ± 3 | 
N=C(N)NCCC[C@@H](NC(=O)CCCCCNCc1nc2c(sc3cc(Br)cnc32)c(=O)[nH]1)C(=O)N[C@H](CCCNC(=N)N)C(=O)N[C@H](CCCNC(=N)N)C(=O)N[C@H](CCCNC(=N)N)C(=O)N[C@H](CCCNC(=N)N)C(=O)N[C@H](CCCNC(=N)N)C(=O)N[C@H](CCCCN)C(N)=O [ARC-3126, BPTP-Ahx-(D-Arg)6-D-Lys-NH2] (X3-[dR][dR][dR][dR][dR][dR][dK]-NH2) | 91 ± 2 | 
N=C(N)NCCC[C@@H](NC(=O)CNC(=O)[C@@H](CCCNC(=N)N)NC(=O)[C@@H](CCCNC(=N)N)NC(=O)CCCCCCCNCc1nc2c(sc3cc(Br)cnc32)c(=O)[nH]1)C(=O)N[C@H](CCCCN)C(N)=O [Compound 1, BPTP-Aoc-(D-Arg)2-Gly-D-Arg-D-Lys-NH2] | 108 ± 5 | residual activity of other basophilic kinases in the panel (panel of 140 PKs): above 81%
N=C(N)NCCC[C@@H](NC(=O)CNC(=O)[C@@H](CCCNC(=N)N)NC(=O)[C@@H](CCCNC(=N)N)NC(=O)CCCCCCCNCc1nc2c(sc3ccc(Br)cc32)c(=O)[nH]1)C(=O)N[C@H](CCCCN)C(N)=O [Compound 2, BBTP-Aoc-(D-Arg)2-Gly-D-Arg-D-Lys-NH2] | 119 ± 12 | residual activity, PIM family, all isoforms (PIM family): 4–7%
N=C(N)NCCC[C@@H](NC(=O)CNC(=O)[C@@H](CCCNC(=N)N)NC(=O)[C@@H](CCCNC(=N)N)NC(=O)Cn1cc(CNCc2nc3c(sc4ccc(Br)cc43)c(=O)[nH]2)nn1)C(=O)N[C@H](CCCCN)C(N)=O [Compound 3, BBTP-Amt-(D-Arg)2-Gly-D-Arg-D-Lys-NH2] | 92 ± 1 | 
CN(C)c1ccc2c(c1)Oc1cc(N(C)C)ccc1C21OC(=O)c2cc(C(=O)NCCCC[C@@H](NC(=O)[C@@H](CCCNC(=N)N)NC(=O)CNC(=O)[C@@H](CCCNC(=N)N)NC(=O)[C@@H](CCCNC(=N)N)NC(=O)CCCCc3cn(Cc4nc5c(sc6ccc(Br)cc65)c(=O)[nH]4)nn3)C(N)=O)ccc21 [Compound 8, BBTP-Tap-(D-Arg)2-Gly-D-Arg-[D-Lys(5-TAMRA)]-NH2] |  | ability to cross the plasma membrane / internalization (U2OS cells): much lower internalization efficiency
